The source of these data is paper PMC3228729, “Localization of ASV Integrase-DNA Contacts by Site-Directed Crosslinking and their Structural Analysis”.

This data set has as its target T1, ASV integrase WT (avian sarcoma virus, UniProt P03354 1281-1567).
T1 sequence: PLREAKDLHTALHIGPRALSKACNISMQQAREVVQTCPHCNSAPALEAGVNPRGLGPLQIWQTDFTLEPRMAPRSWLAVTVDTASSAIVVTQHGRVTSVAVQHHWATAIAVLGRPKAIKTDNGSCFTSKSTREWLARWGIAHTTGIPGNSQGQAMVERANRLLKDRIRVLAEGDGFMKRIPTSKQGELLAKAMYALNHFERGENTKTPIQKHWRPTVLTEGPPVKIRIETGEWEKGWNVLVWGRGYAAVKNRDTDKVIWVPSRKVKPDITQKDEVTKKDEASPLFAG
The data set can be described thus: photocrosslinking; DNA-borne diazirine; among highest efficiency; Photocrosslinking: 40 mM HEPES pH 6.5, 150 mM NaCl, 5% glycerol, 0 C, 10 uM IN, 0.05 uM DNA; disulfide: Buffer 1 adjusted to 250-300 mM NaCl, pH 7.5, on ice, +/-10 mM MgCl2. The note with it: protein: recombinant; label: 32P; blunt.

B1: NH2-3.11 linear (dsDNA)
DNA 1: AATGTAGTCTTATGCAATACTC
DNA 2: GAGTATTGCATAAGACTACATT
modifications: 5-aminouridine replacing T at position 11 of strand 3 (paper numbering), carrying aryl diazirine
Consider B1, for which the binding result is on record as “binds”.

B2: NH2-4.12 linear (dsDNA)
DNA 1: GAGTATTGCATAAGACTACATT
DNA 2: AATGTAGTCTTATGCAATACTC
modifications: 5-aminouridine at position 12 of strand 4 (paper numbering), carrying aryl diazirine
In the case of B2, the binding result is on record as “binds”.
